{"source": "paper PMC4511006", "about": "(2015)", "biological_target": "C1q CLR (collagen-like region) (UniProt P02745 31-109; P02747 31-112)", "assay": "SPR", "note": "Ends that are not written are not given here."}
{"binder": "IALILEPICCQERAA (cysteine pairing not given here; also: acetylated, position not given here)", "note": "[Acetylated PA (AcPA)]", "values": [{"measurement": "koff", "value": 0.000219, "unit": "s⁻¹"}]}
